Test results reported in publication PMC9174199, “Structural basis for MTA1c-mediated DNA N6-adenine methylation” (Nature Communications, 2022).

T1: GST-MTA1 (residues 171-372)
T1 chain: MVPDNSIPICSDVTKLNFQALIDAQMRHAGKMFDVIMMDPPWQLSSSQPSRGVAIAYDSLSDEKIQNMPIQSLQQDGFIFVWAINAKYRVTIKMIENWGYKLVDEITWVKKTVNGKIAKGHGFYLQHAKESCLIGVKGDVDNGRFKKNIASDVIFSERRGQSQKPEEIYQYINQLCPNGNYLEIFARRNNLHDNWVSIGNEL

T2: Tetrahymena thermophila MTA1 (TthMTA1), untagged
T2 chain: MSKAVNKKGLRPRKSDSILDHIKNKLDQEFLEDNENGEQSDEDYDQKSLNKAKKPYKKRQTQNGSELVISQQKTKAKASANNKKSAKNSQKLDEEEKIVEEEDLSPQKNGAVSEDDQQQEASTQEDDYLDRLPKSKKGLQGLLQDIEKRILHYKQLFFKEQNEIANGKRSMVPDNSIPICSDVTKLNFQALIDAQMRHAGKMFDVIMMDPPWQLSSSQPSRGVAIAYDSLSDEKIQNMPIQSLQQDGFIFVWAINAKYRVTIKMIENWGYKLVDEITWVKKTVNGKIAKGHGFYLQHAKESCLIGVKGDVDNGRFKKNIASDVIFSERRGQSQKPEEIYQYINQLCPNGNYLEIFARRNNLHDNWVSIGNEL


What was measured:
[1] = target: Paramecium tetraurelia MTA9 (PteMTA9), untagged; experiment: GST pull-down; settings: parent: 100
[2] = target: T1, GST-MTA1 (residues 171-372); experiment: GST pull-down; settings: chain shown with the change;; parent: 100
[3] = target: T2, Tetrahymena thermophila MTA1 (TthMTA1), …; experiment: GST pull-down, gray scanning of bound MTA1 band; settings: chain shown with the change;; parent: 100
[4] = target: T2, Tetrahymena thermophila MTA1 (TthMTA1), …; experiment: GST pull-down; settings: chain shown with the change;; parent: 100

percent of parent [3] [%]	percent of parent [4] [%]	Molecule	other results
0		His6GST-Tthp2 H39A (protein) MKKNGKSQNQPLDFTQYAKNMRKDLSNQDICLEDGALNASYFLTKKGQYWTPLNQKALQRGIELFGVGNWKEINYDEFSGKANIVELELRTCMILGINDITEYYGKKISEEEQEEIKKSNIAKGKKENKLKDNIYQKLQQMQ	
0		His6GST-Tthp2 Y41A (protein) MKKNGKSQNQPLDFTQYAKNMRKDLSNQDICLEDGALNHSAFLTKKGQYWTPLNQKALQRGIELFGVGNWKEINYDEFSGKANIVELELRTCMILGINDITEYYGKKISEEEQEEIKKSNIAKGKKENKLKDNIYQKLQQMQ	
	78	His6GST-Tthp1 L173A (protein) MSLKKGKFQHNQSKSLWNYTLSPGWREEEVKILKSALQLFGIGKWKKIMESGCLPGKSIGQIYMQTQRLLGQQSLGDFMGLQIDLEAVFNQNMKKQDVLRKNNCIINTGDNPTKEERKRRIEQNRKIYGLSAKQIAEIKLPKVKKHAPQYMTLEDIENEKFTNLEILTHLYNAKAEIVRRLAEQGETIAQPSIIKSLNNLNHNLEQNQNSNSSTETKVTLEQSGKKKYKVLAIEETELQNGPIATNSQKKSINGKRKNNRKINSDSEGNEEDISLEDIDSQESEINSEEIVEDDEEDEQIEEPSKIKKRKKNPEQESEEDDIEEDQEEDELVVNEEEIFEDDDDDEDNQDSSEDDDDDED	
	78	His6GST-Tthp1 I177A (protein) MSLKKGKFQHNQSKSLWNYTLSPGWREEEVKILKSALQLFGIGKWKKIMESGCLPGKSIGQIYMQTQRLLGQQSLGDFMGLQIDLEAVFNQNMKKQDVLRKNNCIINTGDNPTKEERKRRIEQNRKIYGLSAKQIAEIKLPKVKKHAPQYMTLEDIENEKFTNLEILTHLYNLKAEAVRRLAEQGETIAQPSIIKSLNNLNHNLEQNQNSNSSTETKVTLEQSGKKKYKVLAIEETELQNGPIATNSQKKSINGKRKNNRKINSDSEGNEEDISLEDIDSQESEINSEEIVEDDEEDEQIEEPSKIKKRKKNPEQESEEDDIEEDQEEDELVVNEEEIFEDDDDDEDNQDSSEDDDDDED	
	0	His6GST-Tthp1 L167A; L170A (protein) MSLKKGKFQHNQSKSLWNYTLSPGWREEEVKILKSALQLFGIGKWKKIMESGCLPGKSIGQIYMQTQRLLGQQSLGDFMGLQIDLEAVFNQNMKKQDVLRKNNCIINTGDNPTKEERKRRIEQNRKIYGLSAKQIAEIKLPKVKKHAPQYMTLEDIENEKFTNLEIATHAYNLKAEIVRRLAEQGETIAQPSIIKSLNNLNHNLEQNQNSNSSTETKVTLEQSGKKKYKVLAIEETELQNGPIATNSQKKSINGKRKNNRKINSDSEGNEEDISLEDIDSQESEINSEEIVEDDEEDEQIEEPSKIKKRKKNPEQESEEDDIEEDQEEDELVVNEEEIFEDDDDDEDNQDSSEDDDDDED	
	0	His6GST-Tthp1 L167A; L170A; L173A (protein) MSLKKGKFQHNQSKSLWNYTLSPGWREEEVKILKSALQLFGIGKWKKIMESGCLPGKSIGQIYMQTQRLLGQQSLGDFMGLQIDLEAVFNQNMKKQDVLRKNNCIINTGDNPTKEERKRRIEQNRKIYGLSAKQIAEIKLPKVKKHAPQYMTLEDIENEKFTNLEIATHAYNAKAEIVRRLAEQGETIAQPSIIKSLNNLNHNLEQNQNSNSSTETKVTLEQSGKKKYKVLAIEETELQNGPIATNSQKKSINGKRKNNRKINSDSEGNEEDISLEDIDSQESEINSEEIVEDDEEDEQIEEPSKIKKRKKNPEQESEEDDIEEDQEEDELVVNEEEIFEDDDDDEDNQDSSEDDDDDED	
	48	His6GST-Tthp1 L167A (protein) MSLKKGKFQHNQSKSLWNYTLSPGWREEEVKILKSALQLFGIGKWKKIMESGCLPGKSIGQIYMQTQRLLGQQSLGDFMGLQIDLEAVFNQNMKKQDVLRKNNCIINTGDNPTKEERKRRIEQNRKIYGLSAKQIAEIKLPKVKKHAPQYMTLEDIENEKFTNLEIATHLYNLKAEIVRRLAEQGETIAQPSIIKSLNNLNHNLEQNQNSNSSTETKVTLEQSGKKKYKVLAIEETELQNGPIATNSQKKSINGKRKNNRKINSDSEGNEEDISLEDIDSQESEINSEEIVEDDEEDEQIEEPSKIKKRKKNPEQESEEDDIEEDQEEDELVVNEEEIFEDDDDDEDNQDSSEDDDDDED	

Second part, the molecule before the results:

Molecule	percent of parent [3] [%]	percent of parent [4] [%]	other results
GST-MTA1 (residues 171-372) H297A			percent of parent [1]: 97%
GST-MTA1 (residues 171-372) Q296A			percent of parent [1]: 95%
GST-MTA1 (residues 171-372) L295A			percent of parent [1]: 7%
GST-MTA1 (residues 171-372) Y294A			percent of parent [1]: 12%
Paramecium tetraurelia MTA9 (PteMTA9), untagged V219A (protein) MGKNQRESLRMRLRYNEPGSENKRINYFKLNQGYDITEDDSEYMDEQDSYKAFKKIRKYKTKSKEDKVTCDNLEVLLQWKGSINCQSYETDQKKIVVLKKILGTDLSQYAKGVQGIFIDNLFKKDLKNLDISKKLISNGILFIWSDKSLINEILETMENKGFTYIENLVVVQLSLEQALEELNKHMKIEQTEDAVLDNLDFLQQKVQVKDLILHRPSKALNQSKQVLIMFRKFDEQKSQLELRHQRTPDVLFDIVNNGKSCLKTKEYIYQTIETLLPKSQLMEIFAQKDQPRKGWISVCENK			percent of parent [2]: 45%
Paramecium tetraurelia MTA9 (PteMTA9), untagged Y164A (protein) MGKNQRESLRMRLRYNEPGSENKRINYFKLNQGYDITEDDSEYMDEQDSYKAFKKIRKYKTKSKEDKVTCDNLEVLLQWKGSINCQSYETDQKKIVVLKKILGTDLSQYAKGVQGIFIDNLFKKDLKNLDISKKLISNGILFIWSDKSLINEILETMENKGFTAIENLVVVQLSLEQALEELNKHMKIEQTEDAVLDNLDFLQQKVQVKDLILHRPSKVLNQSKQVLIMFRKFDEQKSQLELRHQRTPDVLFDIVNNGKSCLKTKEYIYQTIETLLPKSQLMEIFAQKDQPRKGWISVCENK			percent of parent [2]: 0%
Paramecium tetraurelia MTA9 (PteMTA9), untagged L220A (protein) MGKNQRESLRMRLRYNEPGSENKRINYFKLNQGYDITEDDSEYMDEQDSYKAFKKIRKYKTKSKEDKVTCDNLEVLLQWKGSINCQSYETDQKKIVVLKKILGTDLSQYAKGVQGIFIDNLFKKDLKNLDISKKLISNGILFIWSDKSLINEILETMENKGFTYIENLVVVQLSLEQALEELNKHMKIEQTEDAVLDNLDFLQQKVQVKDLILHRPSKVANQSKQVLIMFRKFDEQKSQLELRHQRTPDVLFDIVNNGKSCLKTKEYIYQTIETLLPKSQLMEIFAQKDQPRKGWISVCENK			percent of parent [2]: 73%
His6GST-Tthp2 S26A (protein) MKKNGKSQNQPLDFTQYAKNMRKDLANQDICLEDGALNHSYFLTKKGQYWTPLNQKALQRGIELFGVGNWKEINYDEFSGKANIVELELRTCMILGINDITEYYGKKISEEEQEEIKKSNIAKGKKENKLKDNIYQKLQQMQ	50		
His6GST-Tthp2 D24A (protein) MKKNGKSQNQPLDFTQYAKNMRKALSNQDICLEDGALNHSYFLTKKGQYWTPLNQKALQRGIELFGVGNWKEINYDEFSGKANIVELELRTCMILGINDITEYYGKKISEEEQEEIKKSNIAKGKKENKLKDNIYQKLQQMQ	77		
His6GST-Tthp2 Y17A (protein) MKKNGKSQNQPLDFTQAAKNMRKDLSNQDICLEDGALNHSYFLTKKGQYWTPLNQKALQRGIELFGVGNWKEINYDEFSGKANIVELELRTCMILGINDITEYYGKKISEEEQEEIKKSNIAKGKKENKLKDNIYQKLQQMQ	0		
His6GST-Tthp2 R22A (protein) MKKNGKSQNQPLDFTQYAKNMAKDLSNQDICLEDGALNHSYFLTKKGQYWTPLNQKALQRGIELFGVGNWKEINYDEFSGKANIVELELRTCMILGINDITEYYGKKISEEEQEEIKKSNIAKGKKENKLKDNIYQKLQQMQ	0		
His6GST-Tthp1 L170A (protein) MSLKKGKFQHNQSKSLWNYTLSPGWREEEVKILKSALQLFGIGKWKKIMESGCLPGKSIGQIYMQTQRLLGQQSLGDFMGLQIDLEAVFNQNMKKQDVLRKNNCIINTGDNPTKEERKRRIEQNRKIYGLSAKQIAEIKLPKVKKHAPQYMTLEDIENEKFTNLEILTHAYNLKAEIVRRLAEQGETIAQPSIIKSLNNLNHNLEQNQNSNSSTETKVTLEQSGKKKYKVLAIEETELQNGPIATNSQKKSINGKRKNNRKINSDSEGNEEDISLEDIDSQESEINSEEIVEDDEEDEQIEEPSKIKKRKKNPEQESEEDDIEEDQEEDELVVNEEEIFEDDDDDEDNQDSSEDDDDDED		47	
His6GST-Tthp1 L167A; L170A; L173A; I177A (protein) MSLKKGKFQHNQSKSLWNYTLSPGWREEEVKILKSALQLFGIGKWKKIMESGCLPGKSIGQIYMQTQRLLGQQSLGDFMGLQIDLEAVFNQNMKKQDVLRKNNCIINTGDNPTKEERKRRIEQNRKIYGLSAKQIAEIKLPKVKKHAPQYMTLEDIENEKFTNLEIATHAYNAKAEAVRRLAEQGETIAQPSIIKSLNNLNHNLEQNQNSNSSTETKVTLEQSGKKKYKVLAIEETELQNGPIATNSQKKSINGKRKNNRKINSDSEGNEEDISLEDIDSQESEINSEEIVEDDEEDEQIEEPSKIKKRKKNPEQESEEDDIEEDQEEDELVVNEEEIFEDDDDDEDNQDSSEDDDDDED		0	
